Measurements as given in PMC3931528.

Biological target: PTB RRM1 (UniProt P26599 41-163)
Assay: ITC

Chain of PTB RRM1 (P26599 41-163): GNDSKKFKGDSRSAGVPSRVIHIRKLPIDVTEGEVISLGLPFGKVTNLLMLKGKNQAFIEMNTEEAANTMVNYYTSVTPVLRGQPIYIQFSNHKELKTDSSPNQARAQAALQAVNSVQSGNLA

Binder UCUCU (ssRNA) [CU 5-mer RNA] has a Kd of 24.7 µM.
